The results in this text go back to patent publication US20260022175A1 (Chugai, published 2026).

In assay [1] the target is T1, human FcγRIa extracellular domain (human, UniProt P12314 16-292).
T1 construct: extracellular domain; also called hFcγR Ia; hFcγRIa
The assay is described as follows: SPR Biacore 8K+; KD of G1d divided by KD of this antibody.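 Note: antibodies captured on an anti-Fab-kappa streptavidin chip, soluble FcγR ectodomains flowed over, KD by steady-state fit for FcγRIIb and Langmuir kinetic model for the other receptors.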 On the technique in general: In SPR one partner is held on a chip, and binding of the other changes the refractive index at the surface.

The target in assay [2] is T2, human FcγRIIa H extracellular domain (human, UniProt P12318 34-217).
T2 construct: extracellular domain; also called hFcγR IIa H
T2 sequence (looked up): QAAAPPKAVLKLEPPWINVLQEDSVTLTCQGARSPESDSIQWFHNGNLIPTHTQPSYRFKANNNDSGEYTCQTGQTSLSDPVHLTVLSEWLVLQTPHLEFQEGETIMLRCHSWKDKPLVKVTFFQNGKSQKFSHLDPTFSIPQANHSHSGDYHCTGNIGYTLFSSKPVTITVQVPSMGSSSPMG
Described as above.

For assay [3], the target named is T3, human FcγRIIa R extracellular domain (human, UniProt P12318 34-217).
T3 construct: extracellular domain; also called hFcγR IIa R
T3 sequence (looked up): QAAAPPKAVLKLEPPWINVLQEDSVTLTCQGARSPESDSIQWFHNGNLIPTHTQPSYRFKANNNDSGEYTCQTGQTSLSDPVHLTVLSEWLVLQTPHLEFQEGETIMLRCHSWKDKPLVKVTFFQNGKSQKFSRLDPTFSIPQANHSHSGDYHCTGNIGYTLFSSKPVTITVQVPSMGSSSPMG
Described as above.

Assay [4] concerns the target T4, human FcγRIIb extracellular domain (human, UniProt P31994 43-217).
T4 construct: extracellular domain; also called hFcγR IIb
T4 sequence (looked up): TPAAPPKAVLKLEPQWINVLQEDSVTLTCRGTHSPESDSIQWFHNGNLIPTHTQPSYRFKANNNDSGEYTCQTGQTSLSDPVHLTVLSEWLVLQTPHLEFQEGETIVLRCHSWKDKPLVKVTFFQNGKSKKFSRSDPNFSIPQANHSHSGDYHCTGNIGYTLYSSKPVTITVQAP
The description is as above.

Assay [5] has as its target T5, human FcγRIIIa F extracellular domain (human, UniProt P08637 17-208).
T5 construct: extracellular domain; also called hFcγR IIIa F
The assay is described as above.

Assay [6] addresses T6, human FcγRIIIa V extracellular domain (human, UniProt P08637 17-208).
T6 construct: extracellular domain; also called hFcγR IIIa V
Described as above.

Assay [7] deals with T2, human FcγRIIa H extracellular domain. The assay is described as follows: SPR Biacore 8K+; KD for FcγRIIb divided by KD for this FcγR.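 Note: antibodies captured on an anti-human Fab kappa SA chip with soluble human FcγR ectodomains flowed over, FcγRIIb KD from steady-state fit, other FcγR KD from Langmuir model.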
Experimental: (§1) The interaction between the produced antibodies and human FcγRs was analyzed using Biacore 8K+ by the method below. For the running buffer, 50 mM Na-Phosphate, 150 mM NaCl, and 0.05% Tween20 (pH 7.4) was used, and measurement was performed at 25° C. The sensor chip used was a Series S SA chip (GE Healthcare) onto which CaptureSelect Human Fab-kappa Kinetics Biotin Conjugate (Thermo Fisher Scientific) was immobilized. An antibody of interest was captured onto this chip, and each FcγR diluted with the running buffer was allowed to interact with it. The chip was regenerated using 10 mM Glycine-HCl (pH 1.5), and repeatedly used to capture antibodies and perform measurement. The dissociation constants KD (mol/L) of each antibody for FcγRs were calculated using Biacore Insight Evaluation Software, with a steady state affinity model for the dissociation constant for FcγRIIb and a 1:1 Langmuir binding model for the dissociation constants for the other FcγRs (Table 48).
The target of assay [8] is T3, human FcγRIIa R extracellular domain. The assay is described as above.
Experimental: as §1
Assay [9] addresses T5, human FcγRIIIa F extracellular domain. Described as above.
Experimental: as §1
In assay [10] the target is T6, human FcγRIIIa V extracellular domain. Described as above.
Experimental: as §1
For assay [11], the target named is T1, human FcγRIa extracellular domain. Nature of the assay: SPR Biacore 8K+, antibody captured, FcγR as analyte, 1:1 Langmuir model.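 Note: antibodies captured on a streptavidin chip through a biotinylated anti-human Fab kappa reagent, with FcγR extracellular domains injected in pH 7.4 phosphate buffer at 25 °C.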
In assay [12] the target is T2, human FcγRIIa H extracellular domain. Described as above.
Assay [13] addresses T3, human FcγRIIa R extracellular domain. The description is as above.
Assay [14] addresses T5, human FcγRIIIa F extracellular domain. Described as above.
In assay [15] the target is T6, human FcγRIIIa V extracellular domain. The description is as above.
The target in assay [16] is T4, human FcγRIIb extracellular domain. Nature of the assay: SPR Biacore 8K+, antibody captured, FcγR as analyte, steady state affinity model.
Assay [17] concerns the target T7, human FcγRIa extracellular domain with C-terminal His-tag (human, UniProt P12314 16-292).
T7 construct: extracellular domain; also called hFcγR Ia; hFcγRIa
The assay is described as follows: SPR Biacore T200, Ab captured via Fab-lambda, pH 7.4, 25C.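 Note: antibodies captured on a streptavidin chip carrying biotinylated anti-Fab-lambda, with each FcγR injected as analyte in phosphate buffer. KD fitted by 1:1 Langmuir or steady-state model depending on receptor.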
Experimental: (§2) The interaction between the generated antibodies and human FcγRs was analyzed by the following method using Biacore T200. 50 mM Na-Phosphate, 150 mM NaCl, 0.05% Tween20 (pH 7.4) was used as the running buffer, and the assay was performed at 25° C. For the sensor chips, Series S SA (GE Healthcare) chips onto which CaptureSelect Human Fab-lambda Kinetics Biotin Conjugate (Thermo Fisher Scientific) was immobilized were used. The antibodies of interest were captured onto these chips and each FcγR diluted in the running buffer was allowed to interact with them. Chips were regenerated with 10 mM Glycine-HCl (pH 1.5) and 25 mM NaOH, and assay was performed by repeatedly capturing antibodies. The dissociation constants KD (mol/L) for FcγRs of each antibody were calculated using Biacore T200 Evaluation Software 2.0, using the 1:1 Langmuir binding model for FcγRIa and FcγRIIIa and the steady state affinity model for FcγRIIa. For FcγRIIb, the binding amount of FcγRIIb per unit amount of antibody was calculated by correcting the binding amount of FcγRIIb obtained from the sensorgram obtained by the measurement with the amount of antibody captured onto the chip surface.

For assay [18], the target named is T8, human FcγRIIa R allotype extracellular domain with C-terminal His-tag (human, UniProt P12318 34-217).
T8 construct: extracellular domain; also called hFcγR IIa R
T8 sequence (looked up): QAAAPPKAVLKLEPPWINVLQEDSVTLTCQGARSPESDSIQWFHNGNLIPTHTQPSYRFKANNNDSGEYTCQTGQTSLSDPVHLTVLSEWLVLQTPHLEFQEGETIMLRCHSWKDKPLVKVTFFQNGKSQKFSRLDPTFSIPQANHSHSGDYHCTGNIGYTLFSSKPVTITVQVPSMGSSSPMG
The description is as above.
Experimental: as §2

The target of assay [19] is T9, human FcγRIIa H allotype extracellular domain with C-terminal His-tag (human, UniProt P12318 34-217).
T9 construct: extracellular domain; also called hFcγR IIa H
T9 sequence (looked up): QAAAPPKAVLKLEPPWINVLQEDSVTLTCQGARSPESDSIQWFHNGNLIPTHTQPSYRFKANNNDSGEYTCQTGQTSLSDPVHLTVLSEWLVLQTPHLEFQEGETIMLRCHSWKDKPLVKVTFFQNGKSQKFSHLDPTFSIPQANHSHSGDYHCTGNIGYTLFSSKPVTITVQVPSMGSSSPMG
Described as above.
Experimental: as §2

For assay [20], the target named is T10, human FcγRIIIa F allotype extracellular domain with C-terminal His-tag (human, UniProt P08637 17-208).
T10 construct: extracellular domain; also called hFcγR IIIa F
The assay is described as above.
Experimental: as §2

In assay [21] the target is T11, human FcγRIIIa V allotype extracellular domain with C-terminal His-tag (human, UniProt P08637 17-208).
T11 construct: extracellular domain; also called hFcγR IIIa V
Described as above.
Experimental: as §2

The target in assay [22] is T12, human FcγRIIb extracellular domain with C-terminal His-tag (human, UniProt P31994 43-217).
T12 construct: extracellular domain; also called hFcγR IIb
T12 sequence (looked up): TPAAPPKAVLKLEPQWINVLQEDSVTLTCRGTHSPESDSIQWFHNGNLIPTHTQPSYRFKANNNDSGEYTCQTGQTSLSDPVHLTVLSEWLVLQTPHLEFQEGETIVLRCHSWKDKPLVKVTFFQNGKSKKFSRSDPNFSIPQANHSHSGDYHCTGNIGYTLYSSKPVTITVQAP
Nature of the assay: SPR; FcγRIIb at 1000 nM, bound amount per unit captured Ab.
Experimental: as §2

Assay [23] has as its target T7, human FcγRIa extracellular domain with …. Nature of the assay: SPR; KD of 04H1637-G1m/04L1610-lam1 divided by KD of variant.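 Note: biacore T200 SPR at 25 °C, antibodies captured on anti-Fab-lambda SA chip with receptor as analyte, running buffer pH 7.4 for FcγRs and pH 6.0 for FcRn.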
The target of assay [24] is T8, human FcγRIIa R allotype extracellular …. Described as above.
Assay [25] concerns the target T9, human FcγRIIa H allotype extracellular …. The description is as above.
In assay [26] the target is T10, human FcγRIIIa F allotype extracellular …. Described as above.
The target in assay [27] is T11, human FcγRIIIa V allotype extracellular …. The description is as above.
In assay [28] the target is T12, human FcγRIIb extracellular domain with …. Nature of the assay: SPR; binding amount divided by that of 04H1637-G1m/04L1610-lam1.

T5 sequence (P08637 17-208): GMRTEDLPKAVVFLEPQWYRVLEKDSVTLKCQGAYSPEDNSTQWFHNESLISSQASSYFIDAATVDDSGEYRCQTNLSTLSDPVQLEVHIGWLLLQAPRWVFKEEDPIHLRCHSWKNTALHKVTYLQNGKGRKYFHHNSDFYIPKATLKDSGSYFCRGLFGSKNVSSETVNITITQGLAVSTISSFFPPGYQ
T6 sequence (P08637 17-208 F176V limits assumed): as the sequence (P08637 17-208) above, with F160V counted along it
T10 sequence (P08637 17-208): as the sequence (P08637 17-208) above
T11 sequence (P08637 17-208 F176V): as the sequence (P08637 17-208) above, with F160V counted along it
T1 sequence (P12314 16-292): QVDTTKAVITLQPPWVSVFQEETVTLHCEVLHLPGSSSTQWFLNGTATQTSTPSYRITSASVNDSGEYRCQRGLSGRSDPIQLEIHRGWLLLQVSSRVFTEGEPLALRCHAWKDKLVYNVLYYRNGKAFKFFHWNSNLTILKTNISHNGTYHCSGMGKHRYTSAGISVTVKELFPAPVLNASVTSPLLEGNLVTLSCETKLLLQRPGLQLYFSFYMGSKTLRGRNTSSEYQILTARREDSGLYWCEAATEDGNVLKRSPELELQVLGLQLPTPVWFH
T7 sequence (P12314 16-292): as above

B1: H240-Kn032/L73-k0//H240-Hl032/L73-k0 (antibody)
heavy 1: QDQLVQSGAEVKKPGASVKVSCKASGFNIKDTYIQWVRQAPGQGLEWMGRIDPLRKQTKYREKFEGRVTITADTSTNTAYMELSSLRSEDTAVYYCVRSGREFDYWGQGTLVTVSSASTKGPSVFPLAPSSKSTSGGTAALGCLVKDYFPEPVTVSWNSGALTSGVHTFPAVLQSSGLYSLSSVVTVPSSSLGTQTYICNVNHKPSNTKVDKKVEPKSCDKTHTCPPCPAPELLGGPDVFLFPPKPKDTLMISRTPEVTCVVVDVSHEDPEVKFNWYVDGVEVHNAKTKPREEQYNSTYRVVSVLTVLHQDWLNGKEYKCKVSNKALPLPEEKTISKAKGQPREPQVCTLPPSRDELTKNQVSLWCLVKGFYPSDIAVEWESNGQPENNYKTTPPVLDSDGSFFLYSKLTVDKSRWQQGNVFSCSVMHEALHNHYTQKSLSLSP
heavy 2: QDQLVQSGAEVKKPGASVKVSCKASGFNIKDTYIQWVRQAPGQGLEWMGRIDPLRKQTKYREKFEGRVTITADTSTNTAYMELSSLRSEDTAVYYCVRSGREFDYWGQGTLVTVSSASTKGPSVFPLAPSSKSTSGGTAALGCLVKDYFPEPVTVSWNSGALTSGVHTFPAVLQSSGLYSLSSVVTVPSSSLGTQTYICNVNHKPSNTKVDKKVEPKSCDKTHTCPPCPAPELLGGPDVFLFPPKPKDTLMISRTPEVTCVVVDVSHEDPEVKFNWYVDGVEVHNAKTKPREEQYNSTYRVVSVLTVLHQDWLNGKEYKCKVSNKALPLPEEKTISKAKGQPREPQVYTLPPSRCELTKNQVSLSCAVKGFYPSDIAVEWESNGQPENNYKTTPPVLDSDGSFFLVSKLTVDKSRWQQGNVFSCSVMHEALHNHYTQKSLSLSP
light: DIQMTQSPSSLSASVGDRVTITCRASQDIHKYIAWYQQKPGQAPRLLIQYTSTLQPGVPSRFSGSGSGTDYTFTISSLQPEDIATYYCLQYEQLRTFGGGTKVEIKRTVAAPSVFIFPPSDEQLKSGTASVVCLLNNFYPREAKVQWKVDNALQSGNSQESVTEQDSKDSTYSLSSTLTLSKADYEKHKVYACEVTHQGLSSPVTKSFNRGEC
notes: also called EGL-SDALIE; SDALIE
On to B1, for which the “Relative value to KD between G1d and hFcgRs” value in assay [1] came out at 54.3; in [2], 1; in [3], 1.8; in [4], 3.9; in assay [5], 113; in [6] it was 36.8. Besides, the “A/I ratio (KD for FcγRIIb divided by KD for each FcγR)” value worked out at 2.2 in assay [7], 2.8 in [8], 98.7 in assay [9] and 266 in [10]. Also, the Kd in [11] came to 0.00166 nM; in [12] it was 1180 nM; in assay [13], 935 nM; in [14], 26.2 nM; in [15], 9.73 nM; in assay [16], 2590 nM.

B2: 04H1637-Kn462/04L1610-lam1//04H1637-Hl441/04L1610-lam1 (antibody, human IgG1, lambda)
heavy 1: QVQLVESGGGLVKPGGSLRLSCAASGFTFSSKTMNWVRQAPGKGLEWVSSISTQSHYIYYAESVRGRFTISRDNAKNSLYLQMNSLRAEDTAVYYCARYGKREDMLWVFDYWGQGTLVTVSSASTKGPSVFPLAPSSKSTSGGTAALGCLVKDYFPEPVTVSWNSGALTSGVHTFPAVLQSSGLYSLSSVVTVPSSSLGTQTYICNVNHKPSNTKVDKKVEPKSCDKTHTCPPCPAPEFQWGPMVFLFPPKPKDVLMISRTPEVTCVVVDVSDEEPEVKFNWYVDGVEVHNAKTKPREEQYNATYRVVSVLPVLHQDWLNGKEYKCKVSNDALPAPIEKTISKAKGQPREPQVCTLPPSRDELTKNQVSLWCLVKGFYPSDIAVEWESNGQPENNYKTTPPVLDSDGSFFLYSKLTVDKSRWQQGNVFSCSVMHEALHNHYTQKSLSLSP
heavy 2: QVQLVESGGGLVKPGGSLRLSCAASGFTFSSKTMNWVRQAPGKGLEWVSSISTQSHYIYYAESVRGRFTISRDNAKNSLYLQMNSLRAEDTAVYYCARYGKREDMLWVFDYWGQGTLVTVSSASTKGPSVFPLAPSSKSTSGGTAALGCLVKDYFPEPVTVSWNSGALTSGVHTFPAVLQSSGLYSLSSVVTVPSSSLGTQTYICNVNHKPSNTKVDKKVEPKSCDKTHTCPPCPAPELLAGPSVFLFPPKPKDVLMISRTPEVTCVVVDVSHEEPEVKFNWYVDGVEVHNAKTKPREEQYNATYRVVSVLPVLHQDWLNGKEYKCKVSNDALPAPIEETISKAKGQPREPQVYTLPPSRCELTKNQVSLSCAVKGFYPSDIAVEWESNGQPENNYKTTPPVLDSDGSFFLVSKLTVDKSRWQQGNVFSCSVMHEALHNHYTQKSLSLSP
light: QSALTQPPSASGSPGQSVTISCEGPSTGVGDYNWVHWYQQHPGKAPKLMIYFTSKKPSGVPDRFSGSKSGNTASLTVSGLQAEDEADYYCQTYAAPLGPMFGGGTKLTVLGQPKAAPSVTLFPPSSEELQANKATLVCLISDFYPGAVTVAWKADSSPVKAGVETTTPSKQSNNKYAASSYLSLTPEQWKSHRSYSCQVTHEGSTVEKTVAPTECS
notes: Heterodimerized antibody; also called 04H1637-Kn462/04L1610-lam1//04H1637-H1441/04L1610-lam1
Take B2: the Kd in [17] stood at 0.15 nM; in assay [18] it was 220 nM; in assay [19], 70 nM; in assay [20] it was 17 nM; in assay [21] it was 5.2 nM. For the same molecule, in assay [22], the Binding amount turned out to be 0.013. In addition, the “Relative value to KD between G1m and hFcγRs” value was 0.3 in assay [23]; 9.2 in [24]; 20.9 in assay [25]; 79.5 in assay [26]; 45.8 in assay [27]. Moreover, the Relative binding amount in [28] came to 1.6.

For orientation: Kd means the free concentration of one partner at which half of the binding sites on the other are occupied at equilibrium, for simple one-to-one binding. A high value points to a looser complex.
